Here are results for 18 variants from the RNAGym collection of RNA variant scans (doi:10.1021/acssynbio.7b00057).

The labels stand for the following.
B1: Pistol ribozyme (parent)
chain: GGGUCGUUGUUCCAUAAUCGCGUGGAUAUGGCACGCAAGUUUCUACCGGGCACCGUAAAUGUCCGACUGGAGCCGUUCGGGCGGCUAUAAACAGACCUCAGGCCCGAAGCGUGGCGGCACCUGCCGCCGGUGGUAAAAAAGAUCGGAAGAGCACACGUCU

In the data set the parent is B1. Put plainly: aptazyme ON/OFF ratio, guanine; higher = stronger switching; co-transcriptional cleavage with and without guanine.
Regarding GGGUCGGCAGUAUAUAAUCGCGUGGAUAUGGCACGCAAGUUUCUACCGGGCACCGUAAAUGUCCGACUGGAGCCGUUCGGGCGGCUAUAAACAGACCUCAGGCCCGAAGCGUGGCGGCACCUGCCGCCGGUGGUAAAAAAGAUCGGAAGAGCACACGUCU, the “aptazyme ON/OFF ratio” value turned out to be 1.09.
Turning to GGGUCGCAUUUUGAUAAUCGCGUGGAUAUGGCACGCAAGUUUCUACCGGGCACCGUAAAUGUCCGACUGGAGCCGUUCGGGCGGCUAUAAACAGACCUCAGGCCCGAAGCGUGGCGGCACCUGCCGCCGGUGGUAAAAAAGAUCGGAAGAGCACACGUCU, the “aptazyme ON/OFF ratio” value stood at 1.14.
Regarding GGGUCGUGAGCGCAUAAUCGCGUGGAUAUGGCACGCAAGUUUCUACCGGGCACCGUAAAUGUCCGACUGGAGCCGUUCGGGCGGCUAUAAACAGACCUCAGGCCCGAAGCGUGGCGGCACCUGCCGCCGGUGGUAAAAAAGAUCGGAAGAGCACACGUCU, the “aptazyme ON/OFF ratio” value turned out to be 1.19.
GGGUCGGUCCCUAAUAAUCGCGUGGAUAUGGCACGCAAGUUUCUACCGGGCACCGUAAAUGUCCGACUGGAGCCGUUCGGGCGGCUAUAAACAGACCUCAGGCCCGAAGCGUGGCGGCACCUGCCGCCGGUGGUAAAAAAGAUCGGAAGAGCACACGUCU: the “aptazyme ON/OFF ratio” value turned out to be 1.03.
On to GGGUCGAAGCCGGAUAAUCGCGUGGAUAUGGCACGCAAGUUUCUACCGGGCACCGUAAAUGUCCGACUGGAGCCGUUCGGGCGGCUAUAAACAGACCUCAGGCCCGAAGCGUGGCGGCACCUGCCGCCGGUGGUAAAAAAGAUCGGAAGAGCACACGUCU, for which the “aptazyme ON/OFF ratio” value is 1.21.
For the variant GGGUCGUUUGUGUAUAAUCGCGUGGAUAUGGCACGCAAGUUUCUACCGGGCACCGUAAAUGUCCGACUGGAGCCGUUCGGGCGGCUAUAAACAGACCUCAGGCCCGAAGCGUGGCGGCACCUGCCGCCGGUGGUAAAAAAGAUCGGAAGAGCACACGUCU, the “aptazyme ON/OFF ratio” value is 1.23.
For GGGUCGAUCUAGUAUAAUCGCGUGGAUAUGGCACGCAAGUUUCUACCGGGCACCGUAAAUGUCCGACUGGAGCCGUUCGGGCGGCUAUAAACAGACCUCAGGCCCGAAGCGUGGCGGCACCUGCCGCCGGUGGUAAAAAAGAUCGGAAGAGCACACGUCU, the “aptazyme ON/OFF ratio” value came out at 1.08.
The result for GGGUCGUCGAGCUAUAAUCGCGUGGAUAUGGCACGCAAGUUUCUACCGGGCACCGUAAAUGUCCGACUGGAGCCGUUCGGGCGGCUAUAAACAGACCUCAGGCCCGAAGCGUGGCGGCACCUGCCGCCGGUGGUAAAAAAGAUCGGAAGAGCACACGUCU reads 1.23; that for GGGUCGCGCCCAUAUAAUCGCGUGGAUAUGGCACGCAAGUUUCUACCGGGCACCGUAAAUGUCCGACUGGAGCCGUUCGGGCGGCUAUAAACAGACCUCAGGCCCGAAGCGUGGCGGCACCUGCCGCCGGUGGUAAAAAAGAUCGGAAGAGCACACGUCU, 1.02.
The value for GGGUCGGAUCGGGAUAAUCGCGUGGAUAUGGCACGCAAGUUUCUACCGGGCACCGUAAAUGUCCGACUGGAGCCGUUCGGGCGGCUAUAAACAGACCUCAGGCCCGAAGCGUGGCGGCACCUGCCGCCGGUGGUAAAAAAGAUCGGAAGAGCACACGUCU was 1.05.
Turning to GGGUCGAUGUACGAUAAUCGCGUGGAUAUGGCACGCAAGUUUCUACCGGGCACCGUAAAUGUCCGACUGGAGCCGUUCGGGCGGCUAUAAACAGACCUCAGGCCCGAAGCGUGGCGGCACCUGCCGCCGGUGGUAAAAAAGAUCGGAAGAGCACACGUCU, the “aptazyme ON/OFF ratio” value came to 1.16.
The result for GGGUCGCUUCCAGAUAAUCGCGUGGAUAUGGCACGCAAGUUUCUACCGGGCACCGUAAAUGUCCGACUGGAGCCGUUCGGGCGGCUAUAAACAGACCUCAGGCCCGAAGCGUGGCGGCACCUGCCGCCGGUGGUAAAAAAGAUCGGAAGAGCACACGUCU reads 1.08; that for GGGUCGCGCUCCGAUAAUCGCGUGGAUAUGGCACGCAAGUUUCUACCGGGCACCGUAAAUGUCCGACUGGAGCCGUUCGGGCGGCUAUAAACAGACCUCAGGCCCGAAGCGUGGCGGCACCUGCCGCCGGUGGUAAAAAAGAUCGGAAGAGCACACGUCU, 1.05.
The value for GGGUCGGUCUCACAUAAUCGCGUGGAUAUGGCACGCAAGUUUCUACCGGGCACCGUAAAUGUCCGACUGGAGCCGUUCGGGCGGCUAUAAACAGACCUCAGGCCCGAAGCGUGGCGGCACCUGCCGCCGGUGGUAAAAAAGAUCGGAAGAGCACACGUCU was 2.21; that for GGGUCGUUUAUAUAUAAUCGCGUGGAUAUGGCACGCAAGUUUCUACCGGGCACCGUAAAUGUCCGACUGGAGCCGUUCGGGCGGCUAUAAACAGACCUCAGGCCCGAAGCGUGGCGGCACCUGCCGCCGGUGGUAAAAAAGAUCGGAAGAGCACACGUCU was 1.09.
The value for GGGUCGCAGGGAGAUAAUCGCGUGGAUAUGGCACGCAAGUUUCUACCGGGCACCGUAAAUGUCCGACUGGAGCCGUUCGGGCGGCUAUAAACAGACCUCAGGCCCGAAGCGUGGCGGCACCUGCCGCCGGUGGUAAAAAAGAUCGGAAGAGCACACGUCU was 1.09; that for GGGUCGUUAUAUGAUAAUCGCGUGGAUAUGGCACGCAAGUUUCUACCGGGCACCGUAAAUGUCCGACUGGAGCCGUUCGGGCGGCUAUAAACAGACCUCAGGCCCGAAGCGUGGCGGCACCUGCCGCCGGUGGUAAAAAAGAUCGGAAGAGCACACGUCU was 1.33.
As to GGGUCGCAAACGCAUAAUCGCGUGGAUAUGGCACGCAAGUUUCUACCGGGCACCGUAAAUGUCCGACUGGAGCCGUUCGGGCGGCUAUAAACAGACCUCAGGCCCGAAGCGUGGCGGCACCUGCCGCCGGUGGUAAAAAAGAUCGGAAGAGCACACGUCU, the “aptazyme ON/OFF ratio” value was 1.21.
